Data reported in patent US20260115255A1.
Where two headings read alike, the source gives them in different places.

How the values were obtained:
FcγRIIIa F158 (human) = FcγRIIIa F158 (human) (UniProt P08637); assay: SPR; ratio of affinity (1/Kd) for FcγRIIIa F158 to affinity for FcγRIIb
FcγRIIIa V158 (human) = FcγRIIIa V158 (human) (UniProt P08637); assay: SPR; ratio of affinity (1/Kd) for FcγRIIIa V158 to affinity for FcγRIIb
[1] = target: IL-2/IL-15Rβγ on kit225 cells (UniProt P14784); assay: cell-based or functional assay
[2] = target: IL-2/IL-15Rβγ on kit225 cells (UniProt P14784); assay: cell-based or functional assay; remark: listed apart in the source
[3] = target: PD-1 on PD-1 Effector Cells (UniProt Q15116); assay: cell-based or functional assay
PD-1 on PD-1 Effector Cells, sequence (Q15116 25-288 limits assumed): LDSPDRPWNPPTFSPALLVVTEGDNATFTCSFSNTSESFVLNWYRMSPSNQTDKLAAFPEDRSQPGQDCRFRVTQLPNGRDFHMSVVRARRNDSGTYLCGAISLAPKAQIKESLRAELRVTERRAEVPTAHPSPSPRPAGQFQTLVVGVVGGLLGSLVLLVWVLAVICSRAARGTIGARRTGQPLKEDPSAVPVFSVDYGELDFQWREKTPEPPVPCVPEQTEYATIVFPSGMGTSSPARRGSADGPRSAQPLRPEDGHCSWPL

IL-2/IL-15Rβγ on kit225 cells, sequence (P14784 27-551 limits assumed, chain 1 of 2): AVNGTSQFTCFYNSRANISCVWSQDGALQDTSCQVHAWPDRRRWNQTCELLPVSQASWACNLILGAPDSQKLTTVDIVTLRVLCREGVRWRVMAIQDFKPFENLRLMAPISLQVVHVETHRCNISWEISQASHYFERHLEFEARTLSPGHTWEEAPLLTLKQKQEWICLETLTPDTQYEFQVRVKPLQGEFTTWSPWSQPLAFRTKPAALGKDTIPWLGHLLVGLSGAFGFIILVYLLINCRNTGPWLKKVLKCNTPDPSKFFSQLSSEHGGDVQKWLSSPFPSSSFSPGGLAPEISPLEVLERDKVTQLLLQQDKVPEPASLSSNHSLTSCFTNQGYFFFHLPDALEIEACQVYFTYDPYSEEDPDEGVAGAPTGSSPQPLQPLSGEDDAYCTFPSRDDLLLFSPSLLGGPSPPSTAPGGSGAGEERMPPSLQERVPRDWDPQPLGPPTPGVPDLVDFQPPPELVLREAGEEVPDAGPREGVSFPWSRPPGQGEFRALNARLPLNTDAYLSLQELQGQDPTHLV
IL-2/IL-15Rβγ on kit225 cells, sequence (P31785 23-369 limits assumed, chain 2 of 2, further chain): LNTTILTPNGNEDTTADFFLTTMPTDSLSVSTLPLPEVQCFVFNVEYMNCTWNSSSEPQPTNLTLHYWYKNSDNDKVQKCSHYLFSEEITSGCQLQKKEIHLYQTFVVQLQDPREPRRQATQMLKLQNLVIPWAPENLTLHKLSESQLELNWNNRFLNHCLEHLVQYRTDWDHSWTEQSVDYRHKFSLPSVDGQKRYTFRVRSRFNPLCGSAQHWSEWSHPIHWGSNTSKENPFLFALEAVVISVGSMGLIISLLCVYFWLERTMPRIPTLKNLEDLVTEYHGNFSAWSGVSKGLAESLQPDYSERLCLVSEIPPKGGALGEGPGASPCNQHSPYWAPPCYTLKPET

| A/I (F158) (FcγRIIIa F158 (human)) | A/I (V158) (FcγRIIIa V158 (human)) | EC50 kit225 cells [1] [nM] | Relative potency to SOT101 [1] [%] | EC50 kit225 cells [2] [nM] | EC50 on kit225 cells [2] [nM] | Relative potency to SOT201 [2] [%] | EC50, PD-1/PD-L1 Blockade Bioassay [3] [nM] | Relative potency vs Keytruda [3] [%] | Substance |
| --- | --- | --- | --- | --- | --- | --- | --- | --- | --- |
| 32.9 | 161 | – | – | – | – | – | – | – | Zolbetuximab (antibody) |
| – | – | 3.02 | 1.19 | 3.94 | 3.02 | 455 | 4.57 | 38.6 | PD1-IL2v |
| – | – | 0.249 | 14.4 | – | – | – | – | – | SOT201 wt (with RLI2AQ) |
